The text below walks through data of article PMC11645210.

Test [1] concerns the target SARS-CoV-2 BA.2.86 Hexapro S ectodomain (SARS-CoV-2) (UniProt P0DTC2). The test is described as follows: cryo-EM structure.
Test [2] has as its target SARS-CoV-2 XBB.1.5 + L455F RBD (SARS-CoV-2) (UniProt P0DTC2). Description: SPR. For orientation: In SPR one partner is held on a chip, and binding of the other changes the refractive index at the surface.
The target of test [3] is SARS-CoV-2 XBB.1.5 + L455S RBD (SARS-CoV-2) (UniProt P0DTC2). Description: SPR.

In turn, “SARS-CoV-2 BA.2.86 Hexapro S ectodomain (from UniProt P0DTC2 14-1204) (domain or fragment)” had a stoichiometry N in test [1] of 3.

With VIR-7229 Fab fragment, in test [2], the dissociation constant Kd was 0.193 nM, the koff was 0.000113 s⁻¹ and the kon was determined as 604000 M⁻¹ s⁻¹. For the same substance, in test [3], the dissociation constant (Kd) was found to be 0.199 nM, the off-rate (koff) was 0.000106 s⁻¹ and the on-rate constant (kon) was 543000 M⁻¹ s⁻¹.

As a reminder, the stoichiometry N is a count of units in the complex or per binding partner. One may read the Kd as the concentration at which binding is half-saturated. Broadly, the koff is the first-order rate constant of dissociation. As usually defined, the kon is the rate constant with which the complex forms.
